According to the nanobody polyreactivity screen of Harvey et al. (2022):

test: yeast display, Sf9 membrane polyspecificity reagent, FACS + sequencing; frameworks hold sequencing errors
Outline: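 Genes from sorted yeast were amplified by colony PCR, read by MiSeq 2 × 250 sequencing and filtered on CDR length. These cells carried a synthetic nanobody library in Saccharomyces cerevisiae BJ5465 and were sorted by FACS into low and high (top ~1%) gates on anti-HA and streptavidin fluorescence. Polyreactivity is labelled according to the gate of origin.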

| Sequence | polyreactivity (PSR sort gate) |
| --- | --- |
| QVQLVESGGGLVQAGGSLRLSCAASGSIFKWYAMGWYRQAHGKERELVAAITNGGGSTYYADSVKGRFTISRDNAKNTVYLQMNSLKPEDTAVYYCNADSYYYPYDYWGQGTQVTVSS | low polyreactivity |
| QVQLVESGGGLVQAGGSLRLSCAASGSIFKYNAMGWYRKAPGKERELVAAISWSGASTSYADSVKGRFTISRDNAKNTVYLQMNSLKPEDTAVYYCNAYYWYYSTRKYYYWGQGTKVTVSS | high polyreactivity |
| QVQLVESGGGLVQAGGSLRLSCAASGSIFKYNAMGWYRQAPGKERELVAAISNDGGRTYYADSVKGRFTISRDNAKNTVYLQMNSLKPEDTPVYDGNVVRVRYYWWEFDYWGQGTQVTVSS | high polyreactivity |
| QVQLVESGGGLVQAGGSLRLSCAASGSIFKYYAMAWYRQSPGNERELVAAISSGGRTYYADSVKGRFTISRDNAKNTVYLQMNSLKPEDTAVYYCNRVGTYHSYDYWGQGTQVTVSS | high polyreactivity |
| QVQLVESGGGLVQAGGSLRLSCAASGSIFKYYAMGWYIQAPGKERELVAAITYSGGSTYYADSVKGRFTISRDNAKNTVYLQMNSLKPEDTAVYYCNKVYKSYYWGGYEWGQATQVTVSS | high polyreactivity |
| QVQLVESGGGLVQAGGSLRLSCAASGSIFKYYAMGWYRQAPGKERELVAAISSNGGRTYYADSVKGRFTISRDNAKNTVYLQMNSLKPEDTAVYYCNVVVKGAWDYYPYDYWGQGTQVTVSS | high polyreactivity |
| QVQLVESGGGLVQAGGSLRLSCAASGSIFKYYAMGWYRQAPGKERELVAAISSSGNTYYADSVKGRFTISRDNAKNTVYLQMNSLKPEDTAVYYCNAYRPGEMDYWGQGTQVTVSS | high polyreactivity |
| QVQLVESGGGLVQAGGSLRLSCAASGSIFKYYAMGWYRQARGKERELVAVITSGGSTYYADSVKGLFTISRDNAKNTVYLQMNSLKPEDTAVYYCAAGVRAYNWGEYDYWGQGTQVTVSS | low polyreactivity |
| QVQLVESGGGLVQAGGSLRLSCAASGSIFLANAMGWYRQAPGKERELVAGISSSVTTNYADSVKGRFTISRDNAKNTVYLQMNSLKPEDTAVYYCNTVLRVQFYWGQGTQVSVSS | low polyreactivity |
| QVQLVESGGGLVQAGGSLRLSCAASGSIFLAYAMGWYRQAPGKEMELVATISVSGTTTYYADSVKGRFTISRDNAKNTVYLQMNSLKPEDTAVYYCAADQQDGLWDYQDWYDYWGQGTQVTVSS | low polyreactivity |
| QVQLVESGGGLVQAGGSLRLSCAASGSIFLDNAMGWYRQAPGKEREFVATISWRTGRTYYADSVKGRFTISRDNAKNTVYLHMNSLKPEDTAVYYCAVDTVRNHRMDYWGQGTQVTVSS | low polyreactivity |
| QVQLVESGGGLVQAGGSLRLSCAASGSIFLDNAMGWYRQAPGKERELVAAISWSAGSTYYADSVKGRFTISRDNAKNTVYLQMNSLKPEDTAVYYCAAESYPGWYWDDYWGQGTQVTVSS | high polyreactivity |
| QVQLVESGGGLVQAGGSLRLSCAASGSIFLFNAMGWNRQAPGKERELVAANTSSGTRTYYADSVKGRFTISRDNAKNTVYLQMNSMKPEDTAVYYCNAVGPVDSYHRYYYWGQGTQVTVSS | low polyreactivity |
| QVQLVESGGGLVQAGGSLRLSCAASGSIFLFNAMGWYRQAPGKERELVAAINRDDSTYYADSVKGRFTISRDNAKNTVYLQMNSLKPEDTAVYYCAAPVLHASYGYGYWGQGTQGTVSS | low polyreactivity |
| QVQLVESGGGLVQAGGSLRLSCAASGSIFLGNAMGWSRQAPGKERELVAAISSITGRTYYADSVKGRFTISRDNAKNTVYLQMNSLKPEDTAVYYCNKVKRSFIVNTDDYWGQGTQVTVSS | high polyreactivity |
| QVQLVESGGGLVQAGGSLRLSCAASGSIFLGNAMGWYRQAPGKERELVAAITSRGGRTYYADSVKGRFTISRDNAKNTVYLLMNSLKPEDTAVYYFAVLGFGALDFDSWGQGTEVTVSS | high polyreactivity |

| Sequence | polyreactivity (PSR sort gate) |
| --- | --- |
| QVQLVESGGGLVQAGGSLRLSCAASGSIFLGNAMGWYSPAPGKERELVAAISYSGGSTYYADSVKGRFTISRDNAKNTVYLQMNSLKPEDTDVYYCAADRSSQFDLDYWGQGTRVTVSS | low polyreactivity |
| QVQLVESGGGLVQAGGSLRLSCAASGSIFLGSVMVWYRQAPGKERELVATITGNGDGTYYADSVKGRFTISRDKAKNTVYLQMNSLKPADTAVYYCAADRSGPGYDYWGQGTQVTVSS | low polyreactivity |
| QVQLVESGGGLVQAGGSLRLSCAASGSIFLKYTMGWYRQAPGKERELVAAITSGGTTNYADSVKGRFTISRDNAKNTVYLQMNSLKPEDTAVYYCARDSYQLGLIRDPLEYDYWGQGTQVTVSS | low polyreactivity |
| QVQLVESGGGLVQAGGSLRLSCAASGSIFLKYVMGWYRQATGKEMELVAAISSAGGTYYADSVKGRFTISRDNEKYTVYLQMICLKPEDTAVYYCGRRPYRGSYAYDYWGQGSQVTVSS | low polyreactivity |
| QVQLVESGGGLVQAGGSLRLSCAASGSIFLLNAMGWYRQAPGKERELVAVISSGTGSTYYADSVKGRFTISRDTAKNTVYLQMNSLKPEDTAVYYCAAERDAVLFFVGPYYITLDYDYWGQGTQVTVSS | low polyreactivity |
| QVQLVESGGGLVQAGGSLRLSCAASGSIFLNNAMGWYSQAPGKERELVAAITRNVGSTYYADSVKGRFTISRDNAKNTVYLQMNSMKPEATAVYYCAADRRRRYDYWGQGTQVTVSS | low polyreactivity |
| QVQLVESGGGLVQAGGSLRLSCAASGSIFLPYAMGWYRQAPGKERELVATIRGRGGSTYYADSVKGRFTISRDNAKITVYLLMNSPKPEDTAVYYCAAKNGDRYARGYWGQGTQVTVSS | high polyreactivity |
| QVQLVESGGGLVQAGGSLRLSCAASGSIFLQYAMGWYRQAPGKERELVAAISWSGGSTYYADSVKGRFTISRDNAKNTVYVQMNSLKPEDTAVYYCAAPITPYRHYRMDYWGQGTQVTVSS | low polyreactivity |
| QVQLVESGGGLVQAGGSLRLSCAASGSIFLQYTMGWYRQAPGKERELVAAITESDGSTYYADSVKGRFTISRDNAKNTVYLQMNSLKPEDTAVYYCAADVVYFKYWDKYDYWGQGTQVTVSS | low polyreactivity |
| QVQLVESGGGLVQAGGSLRLSCAASGSIFLRNAMGWYRQAPGKERELVAAITNSSGSTYYADSVKGRFTISRDNAKNTVYLQMNSLKPEDTAVYYCAATSRSSRRYYYWGQGTQVTVSS | high polyreactivity |
| QVQLVESGGGLVQAGGSLRLSCAASGSIFLRYAMGWYRQAPGKERELVAAITTGGGSTYYADSVKGRFTISRDNAKNTDYLQMNSLKPVDTAVYYCAKRAQYHWRGRDDYSYYYWGQGTQVTVSS | low polyreactivity |
| QVQLVESGGGLVQAGGSLRLSCAASGSIFLSNAMGWYRQAPGKEREMVAIRKSTGSTYYADSVKGRFTISRDNAKNTVYLQMYSLKPEDTAVYYCNAGGWNAYRYRAYDYGGQGTQVTVSS | high polyreactivity |
| QVQLVESGGGLVQAGGSLRLSCAASGSIFLVNAKGCYRQAPGKARELVAAITYGGDSTYYADSVKGRFTISRDNAKNTVYLQMNSLKPEDTAVYYCAADAWVGWHDEYDYWGQGTQVTVSS | low polyreactivity |
| QVQLVESGGGLVQAGGSLRLSCAASGSIFLVNAMGWSRQAPGKERELVASITWRGGRTYYAASVKGRFTISRDNAKNTVYLQMNSLKPEDTAVYYCAARNYRTGERLRYDYWGQGTQVTVSS | low polyreactivity |
| QVQLVESGGGLVQAGGSLRLSCAASGSIFLVNAMGWYRQAPGKERELVAAIRGSGGSTYYADSVKGRFTISRDNAKNTVYLQMNSLKPEDTAVYYCAADIWRLAYDYWGQGTQVTVSS | low polyreactivity |
| QVQLVESGGGLVQAGGSLRLSCAASGSIFLWNAMGGYRQAPGKERDLVAAISSSGGSTYYADSVKGRFTISRDNAKNTVYLQMNSLKPEDTAVYYCAAVSRSYYNSYNYWGQGTQVTVSS | high polyreactivity |
